The source of these data is US20250388680A1 (KITE PHARMA, published 2025).

Experiment [1] has as its target T1, huCLEC12B (Acro Biosystems) (human, UniProt Q2HXU8 65-276, limits assumed).
T1 construct: Bought protein
T1 sequence (looked up): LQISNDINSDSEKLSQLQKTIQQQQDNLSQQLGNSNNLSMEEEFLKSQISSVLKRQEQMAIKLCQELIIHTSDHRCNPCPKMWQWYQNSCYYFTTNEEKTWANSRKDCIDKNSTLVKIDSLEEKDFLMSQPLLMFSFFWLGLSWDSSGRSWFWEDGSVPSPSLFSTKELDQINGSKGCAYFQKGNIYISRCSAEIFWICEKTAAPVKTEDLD
As to the kind of experiment: Octet BLI, mAb captured on FAB2G anti-human Fab biosensors. How it is done: (§1) Octet Off-Rate Ranking Assay: Alternate binding assay was conducted with the recombinant antibodies confirming specific binding to CLL1 without binding to CLEC12B. Briefly, purified mAbs were individually captured on FAB2G anti-human Fab biosensors. The mAb-captured biosensors were dipped in wells containing antigen and the binding response was measured. Biosensors were later dipped in buffer wells to observe the dissociation of bound antigen from captured mAb and were regenerated and similar binding kinetic assays were performed for subsequent antigens. The binding kinetics of fifteen mAbs were illustrated in Table 2.
A general note: Biolayer interferometry detects binding as a change in optical thickness at a sensor tip.

Experiment [2] has as its target T2, muIgG2a monoFc huCLL1 (+) (human).
T2 construct: ELISA coating antigen
As to the kind of experiment: ELISA, plate coated with antigen 1 ug/mL; antibody 10.00 ug/mL in well. How it is done: ELISA Validation: Antibodies identified by the Beacon screen were made recombinantly and validated for binding to CLL1. High-binding ELISA plate was coated with muIgG2a monoFc huCLL1 (+) (1 μg/mL) overnight at 4° C. After removal of the antigen, the wells were blocked with 2% BSA in 1×PBS for 1 hour. The BSA was then removed and the primary antibody was added to the wells in 1×PBS solution, incubated at RT for 1 hour. The wells were washed four times with 1×PBS. HRP conjugated secondary antibody was added in blocking solution, and was incubated at RT for 45 minutes. The wells were washed five times with 1×PBS. TMB substrate was added, followed by stop solution. The plates were read at 450 nm.

For experiment [3], the target named is T3, muIgG2a huCLL1 (human, UniProt Q5QGZ9 65-265, limits assumed).
T3 construct: It may be the same construct as muIgG2a monoFc huCLL1 (+) of the ELISA; also called huCLL1.mIgG2a; not shown: mouse IgG2a part
T3 sequence: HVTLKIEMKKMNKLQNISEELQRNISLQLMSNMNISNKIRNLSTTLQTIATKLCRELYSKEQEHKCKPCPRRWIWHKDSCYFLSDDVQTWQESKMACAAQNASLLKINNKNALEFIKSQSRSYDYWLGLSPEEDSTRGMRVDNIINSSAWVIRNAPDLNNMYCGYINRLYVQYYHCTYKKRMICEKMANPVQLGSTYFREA
In words: Octet BLI, mAb captured on FAB2G biosensor, antigen in solution. How it is done: as §1

Experiment [4] has as its target T4, huIgG1 huCLL1 (human, UniProt Q5QGZ9 65-265, limits assumed).
T4 construct: not shown: human IgG1 part
T4 sequence: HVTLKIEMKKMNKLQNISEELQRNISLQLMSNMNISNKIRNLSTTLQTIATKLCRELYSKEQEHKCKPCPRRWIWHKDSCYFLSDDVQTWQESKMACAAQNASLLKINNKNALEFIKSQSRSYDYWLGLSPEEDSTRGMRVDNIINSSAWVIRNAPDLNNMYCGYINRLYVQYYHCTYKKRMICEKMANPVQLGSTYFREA
The description is as above. The method, then:
as §1

For experiment [5], the target named is T3, muIgG2a huCLL1. As to the kind of experiment: Octet BLI, mAb captured on FAB2G biosensor, antigen in solution; antigen huCLL1 fused to muIgG2a Fc. How it is done: as §1
Experiment [6] addresses T4, huIgG1 huCLL1. In words: Octet BLI, mAb captured on FAB2G biosensor, antigen in solution; antigen huCLL1 fused to huIgG1 Fc. The method, then: as §1

B1: D2D88607-9226 (antibody, V domains shown)
VH: QVQLQQWGAGLLKPSETLSLTCAVYGGSFSGYYWSWIRQPPGKGLEWIGEFNHSGGPNYNPSLKSRVTISTDTSNNQFSLKLSSVTAADTAVYYCARGTTGNYYYYMDVWGKGTTVTVSS
VL: AIQMTQSPSSLSASVGDRVTITCRASQGIRNDLGWYQQKPGKAPKLLIYAASSLQSGVPSRFSGSGSGTDFTLTISSLQPEDFATYYCLQDYIYPPTFGPGTKLEIK
notes: also called mAb_023
As usually defined, the Kd is the equilibrium constant for the complex coming apart. Higher therefore signals a looser complex. Broadly, the t½ is the time needed for the level to fall by half in the phase considered. The low end stands for fast loss, the high end for slow loss. B1: the binding result in experiment [1] is on record as “no binding”. Moreover, in experiment [2], the “OD 450 nm” value came out at 1.75 OD. For the same molecule, the values for the Kd with muIgG2a huCLL1 [3] and with huIgG1 huCLL1 [4] were 0.347 nM and 2.28 nM, respectively. The figures for the “t½” value in the experiment with muIgG2a huCLL1 [3] and with huIgG1 huCLL1 [4] were 64.1 min and 16.5 min, respectively.

B2: D2AD89041-10444 (antibody, V domains shown)
VH: EVQLLESGGGLVQPGGSLRLSCAASGFTFNNYVMAWVRQVPGKGLEWVSGISGSGLITSYAASVKDRFTISRDNSNNTVYLQMKSLRAEDTAVYFCAKEPHVLLDDYMDVWGKGTTVTVSS
VL: EIVLTQSPATLSLSPGERATLSCGASQSVTSSYLAWYQQKPGLAPRLLIYDASNRATGIPDRFSGSGSGTDFTLTISRLEPEDFAVYYCQQYGRSLTFGGGTKVEIK
notes: also called mAb_049
Regarding B2, in experiment [1], the binding result was “no binding”. The Kd in the experiment with muIgG2a huCLL1 [5] worked out at 3.46 nM; with huIgG1 huCLL1 [6], 1120 nM. Besides, in experiment [2], the “OD 450 nm” value worked out at 0.205 OD. Also, the “t½” value in the experiment with muIgG2a huCLL1 [3] amounted to 5.4 min; with huIgG1 huCLL1 [4], 0 min.

B3: D2D88607-14083 (antibody, V domains shown)
VH: EVQLLESGGDLVQPGGSLRLSCAASGFTFSSYAMNWVRQAPGKGLEWVSAISGSGVFTYYADSVKGRFTISRDNSENTLYLQMNSLRAEDTAVYYCAKEMQQLIQGDLFDIWGQGTMVTVSS
VL: EIVLTQSPATLSLSPGERATLSCGASQSVSNNYLAWYQQKPGLAPRLLIYDASSRATGIPDRFSGSGSGTDFTLTISRLEPEDFAVYYCQQYGSSHTFGQGTKLEIK
notes: also called mAb_017
In the case of B3, in experiment [1], the binding result is listed as “no binding”. In the experiment with muIgG2a huCLL1 [3], the equilibrium dissociation constant (Kd) was found to be 0.374 nM and the “t½” value was 116 min. Further, in the experiment with huIgG1 huCLL1 [4], the affinity, expressed as Kd, was 3.19 nM and the “t½” value was 18.6 min.

B4: D2D88607-15321 (antibody, V domains shown)
VH: EVQLVESGGGLVQPGGSLRLSCAASGFTFSFNDMNWVRQAPGKGLEWVSTISGSGGSTYYADSVKGRFTISRDNSKNTLYLQMNSLRAEDTAVYYCAVTGLYYYYYMDVWGKGTTVTVSS
VL: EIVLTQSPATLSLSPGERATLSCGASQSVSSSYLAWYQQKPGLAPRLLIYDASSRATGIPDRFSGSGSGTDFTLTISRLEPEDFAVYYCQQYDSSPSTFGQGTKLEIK
notes: also called mAb_018
Take B4: the binding result in experiment [1] is “no binding”. Moreover, the “OD 450 nm” value in experiment [2] amounted to 1.38 OD. Further, the values for the Kd with muIgG2a huCLL1 [3] and with huIgG1 huCLL1 [4] were 4.29 nM and 29.4 nM, respectively. Also, the “t½” value with muIgG2a huCLL1 [3] came out at 83.2 min; in the experiment with huIgG1 huCLL1 [4], 9.1 min.

B5: D2AD88607-7048 (antibody, V domains shown)
VH: EVQLVESGGGLVQPGGSLRLSCAASGFTFSSYDMHWVRQATGKGLEWVSAIGTAGDKYYLASVKGRFTISRENAKNSLYLQMNSLRAGDTAVYYCVRDSLTGPTVTPYMDVWGKGTTVTVSS
VL: EIVLTQSPDFQSVTPKEKVTITCRASQSIGSGLHWYQQKPDQSPKLLIIYASQSISGVPSRFSGSGSGTDFTLTINSLEAEDAAAYYCHQSSSLPYTFGQGTKLEIK
notes: also called mAb_042
As to B5, the binding result in experiment [1] is “no binding”. The “OD 450 nm” value in experiment [2] amounted to 1.57 OD. In the experiment with muIgG2a huCLL1 [3], binding was put at a Kd of 2.98 nM and the “t½” value is 7.7 min. Also, in the experiment with huIgG1 huCLL1 [4], the dissociation constant (Kd) is 81.1 nM and the “t½” value is 0.3 min.

B6: D2AD88607-5141 (antibody, V domains shown)
VH: QVQLVESGGGVVQPGRSLRLSCAASGFTFSSYGMHWVRQAPGKGLEWVAIISYDGSDKYYADSVKGRFTISRDNSKNTLYLQMNSLRAEDTAVYYCARNYNYYMDVWGKGTTVTVSS
VL: EIVMTQSPATLSLSPGERATLSCRASQSVRSSYLSWYQQKPGQAPRLLIYGTSTRATGIPARFSGSGSGTDFTLTISSLQPEDFAVYYCQQDYNLPLTFGGGTKVEIK
notes: also called mAb_038
As to B6, the binding result in experiment [1] was “no binding”. For the same molecule, the “OD 450 nm” value in experiment [2] is 2 OD. Further, in the experiment with muIgG2a huCLL1 [3], the Kd was found to be 0.766 nM and the “t½” value was determined as 54.4 min. Further, in the experiment with huIgG1 huCLL1 [4], the affinity, expressed as Kd, was 19.9 nM and the “t½” value worked out at 2.3 min.
